{"source": "paper PMC4962319", "biological_target": "TIA-1-GLuc1 (UniProt P31483)", "sequence (P31483 whole entry, the tested form may be a part)": "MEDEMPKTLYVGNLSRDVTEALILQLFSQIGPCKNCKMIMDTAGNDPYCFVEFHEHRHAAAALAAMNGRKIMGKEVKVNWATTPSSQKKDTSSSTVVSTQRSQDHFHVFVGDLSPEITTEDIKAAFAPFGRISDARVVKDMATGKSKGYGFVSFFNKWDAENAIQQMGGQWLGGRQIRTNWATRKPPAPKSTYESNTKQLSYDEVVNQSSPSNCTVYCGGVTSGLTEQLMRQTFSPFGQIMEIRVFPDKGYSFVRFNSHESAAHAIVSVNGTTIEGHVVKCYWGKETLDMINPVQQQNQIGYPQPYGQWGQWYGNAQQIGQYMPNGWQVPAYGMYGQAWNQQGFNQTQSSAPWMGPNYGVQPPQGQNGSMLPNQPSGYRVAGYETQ", "assay": "split reporter (BiFC, NanoBiT); split Gaussia luciferase protein-fragment complementation assay (PCA); GLuc1 and GLuc2 fusions coexpressed in live HEK293T cells, luminescence read 48 h after transfection with native coelenterazine"}
{"substance": "TauE14-GLuc2 (from UniProt P10636-6 1-383) (natural protein)", "values": [{"measurement": "fold of PCA interaction signal over wildtype Tau", "result": "> 6", "unit": "fold"}]}
